Experimental findings from PMC5817926 (2018) are described below.

The target of this assay is ubiquitin polyprotein composed of nine identical repeats (Ubi)9 (UniProt P0CG48 1-76). In words: extended unfolded state at 170 pN force (single-molecule force spectroscopy).
ubiquitin polyprotein composed of nine identical repeats (Ubi)9, sequence (P0CG48 1-684): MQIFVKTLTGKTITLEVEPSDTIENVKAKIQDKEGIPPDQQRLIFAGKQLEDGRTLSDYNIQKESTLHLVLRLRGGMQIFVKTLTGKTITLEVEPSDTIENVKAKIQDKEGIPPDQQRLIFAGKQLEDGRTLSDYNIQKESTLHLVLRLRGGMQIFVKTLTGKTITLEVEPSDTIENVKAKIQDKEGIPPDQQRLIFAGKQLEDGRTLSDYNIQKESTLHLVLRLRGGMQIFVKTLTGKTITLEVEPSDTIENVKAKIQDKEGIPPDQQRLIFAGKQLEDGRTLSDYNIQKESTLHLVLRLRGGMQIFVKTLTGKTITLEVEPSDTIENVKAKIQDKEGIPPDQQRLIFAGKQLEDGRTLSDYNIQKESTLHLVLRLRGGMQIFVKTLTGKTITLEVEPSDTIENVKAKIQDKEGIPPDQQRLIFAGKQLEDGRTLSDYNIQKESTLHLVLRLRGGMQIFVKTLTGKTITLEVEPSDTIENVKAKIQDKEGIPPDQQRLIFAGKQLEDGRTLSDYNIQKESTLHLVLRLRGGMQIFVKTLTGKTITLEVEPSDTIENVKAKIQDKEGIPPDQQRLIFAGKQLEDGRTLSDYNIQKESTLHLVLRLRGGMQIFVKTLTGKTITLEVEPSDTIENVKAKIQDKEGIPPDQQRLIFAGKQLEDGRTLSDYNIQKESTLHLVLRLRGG

B1: DnaJ (Hsp40) (natural protein)
chain: MAKQDYYEILGVSKTAEEREIRKAYKRLAMKYHPDRNQGDKEAEAKFKEIKEAYEVLTDSQKRAAYDQYGHAAFEQGGMGGGGFGGGADFSDIFGDVFGDIFGGGRGRQRAARGADLRYNMELTLEEAVRGVTKEIRIPTLEECDVCHGSGAKPGTQPQTCPTCHGSGQVQMRQGFFAVQQTCPHCQGRGTLIKDPCNKCHGHGRVERSKTLSVKIPAGVDTGDRIRLAGEGEAGEHGAPAGDLYVQVQVKQHPIFEREGNNLYCEVPINFAMAALGGEIEVPTLDGRVKLKVPGETQTGKLFRMRGKGVKSVRGGAQGDLLCRVVVETPVGLNERQKQLLQELQESFGGPTGEHNSPRSKSFFDGVKKFFDDLTR
Usually koff stands for the first-order rate constant of dissociation. As for B1, the koff amounted to 0.0458 s⁻¹.
